The values below come from the supplement of paper PMC9112550, “Optimization of the antimicrobial peptide Bac7 by deep mutational scanning” (BMC Biology, 2022).

The series concerns Escherichia coli TOP10. Description: shrunken log2 fold change of peptide-encoding DNA abundance (4.5 h post-induction vs induction); higher = less antimicrobial activity (less host growth inhibition). Conditions: time post-induction: 4.5 h; library: site-saturation at positions 5, 18, 19, 20.
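Further: peptides expressed intracellularly from a pBAD plasmid library in pooled LB shake-flask culture, induced with 0.3% L-arabinose, DNA abundance read by NGS, three biological replicates, DESeq2 with apeglm shrinkage.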

As to RRIRWRPPRLPRPRPRPLRVPRP, the “shrunken log2 fold change” value worked out at 0.874.

With RRIRRRPPRLPRPRPRPVAVPRP, the “shrunken log2 fold change” value was determined as 0.348.

Consider RRIRARPPRLPRPRPRPMILPRP, for which the “shrunken log2 fold change” value was 0.0109.

In the case of RRIRSRPPRLPRPRPRPAIVPRP, the “shrunken log2 fold change” value amounted to 0.385.

Take RRIRFRPPRLPRPRPRPMVYPRP: the “shrunken log2 fold change” value was -0.389.

With RRIRSRPPRLPRPRPRPESVPRP, the “shrunken log2 fold change” value worked out at 0.17.

In the case of RRIRVRPPRLPRPRPRPVWNPRP, the “shrunken log2 fold change” value turned out to be 0.152.

Regarding RRIRKRPPRLPRPRPRPLPHPRP, the “shrunken log2 fold change” value was -0.0107.

On to RRIRNRPPRLPRPRPRPTWAPRP, for which the “shrunken log2 fold change” value is 0.374.

With RRIRPRPPRLPRPRPRPPRLPRP, the “shrunken log2 fold change” value came out at 0.406.

As for RRIRFRPPRLPRPRPRPMTIPRP, the “shrunken log2 fold change” value is -0.182.

RRIRHRPPRLPRPRPRPDAHPRP: the “shrunken log2 fold change” value was -0.119.

For the sequence RRIRDRPPRLPRPRPRPYIFPRP, the “shrunken log2 fold change” value worked out at 3.58.

Turning to RRIRERPPRLPRPRPRPWADPRP, the “shrunken log2 fold change” value was -0.00088.

Turning to RRIRERPPRLPRPRPRPQWWPRP, the “shrunken log2 fold change” value amounted to 0.273.

For RRIRLRPPRLPRPRPRPYADPRP, the “shrunken log2 fold change” value is -0.135.

For the sequence RRIRNRPPRLPRPRPRPCQFPRP, the “shrunken log2 fold change” value was -0.0212.

For RRIRCRPPRLPRPRPRPRGAPRP, the “shrunken log2 fold change” value stood at 0.766.

As to RRIRNRPPRLPRPRPRPTICPRP, the “shrunken log2 fold change” value was -0.119.

As to RRIRMRPPRLPRPRPRPNLEPRP, the “shrunken log2 fold change” value is 0.284.

With RRIRFRPPRLPRPRPRPKMDPRP, the “shrunken log2 fold change” value was -0.0752.

For the sequence RRIRGRPPRLPRPRPRPITVPRP, the “shrunken log2 fold change” value is -0.0412.

For RRIRHRPPRLPRPRPRPQYMPRP, the “shrunken log2 fold change” value was -0.252.

As to RRIRSRPPRLPRPRPRPFNGPRP, the “shrunken log2 fold change” value is -0.0626.

In the case of RRIRNRPPRLPRPRPRPFCHPRP, the “shrunken log2 fold change” value is -0.476.

For the sequence RRIRCRPPRLPRPRPRPEGTPRP, the “shrunken log2 fold change” value was 0.137.

Take RRIRSRPPRLPRPRPRPIVTPRP: the “shrunken log2 fold change” value is -0.192.

Consider RRIRERPPRLPRPRPRPWYDPRP, for which the “shrunken log2 fold change” value was -0.392.

As to RRIRSRPPRLPRPRPRPGILPRP, the “shrunken log2 fold change” value was -0.0441.

Regarding RRIRARPPRLPRPRPRPWKIPRP, the “shrunken log2 fold change” value is -0.117.

For RRIRVRPPRLPRPRPRPDYQPRP, the “shrunken log2 fold change” value is 0.0174.

With RRIRARPPRLPRPRPRPPQIPRP, the “shrunken log2 fold change” value stood at 0.599.

As for RRIRPRPPRLPRPRPRPSYVPRP, the “shrunken log2 fold change” value was -0.127.

As to RRIRTRPPRLPRPRPRPEQPPRP, the “shrunken log2 fold change” value was 0.309.

In the case of RRIRDRPPRLPRPRPRPKSCPRP, the “shrunken log2 fold change” value was -0.0117.

Consider RRIRTRPPRLPRPRPRPSELPRP, for which the “shrunken log2 fold change” value is -0.255.

For the sequence RRIRMRPPRLPRPRPRPQHAPRP, the “shrunken log2 fold change” value came out at 0.0286.

Consider RRIRMRPPRLPRPRPRPGMFPRP, for which the “shrunken log2 fold change” value is 0.341.

Consider RRIRHRPPRLPRPRPRPLALPRP, for which the “shrunken log2 fold change” value is -0.563.

Consider RRIRFRPPRLPRPRPRPLWRPRP, for which the “shrunken log2 fold change” value turned out to be 0.32.

As to RRIRQRPPRLPRPRPRPWYQPRP, the “shrunken log2 fold change” value is -0.000894.

Turning to RRIRGRPPRLPRPRPRPNSVPRP, the “shrunken log2 fold change” value was -0.0052.

In the case of RRIRKRPPRLPRPRPRPDQPPRP, the “shrunken log2 fold change” value is -0.018.

Regarding RRIRVRPPRLPRPRPRPANYPRP, the “shrunken log2 fold change” value is -0.241.

In the case of RRIRSRPPRLPRPRPRPWFVPRP, the “shrunken log2 fold change” value is -0.36.

Consider RRIRIRPPRLPRPRPRPLCSPRP, for which the “shrunken log2 fold change” value is -0.682.

In the case of RRIRVRPPRLPRPRPRPSQNPRP, the “shrunken log2 fold change” value is -0.242.

As to RRIRFRPPRLPRPRPRPVYMPRP, the “shrunken log2 fold change” value is -0.969.

Consider RRIRKRPPRLPRPRPRPTAHPRP, for which the “shrunken log2 fold change” value stood at 0.513.

In the case of RRIRNRPPRLPRPRPRPELCPRP, the “shrunken log2 fold change” value worked out at 0.232.

RRIRTRPPRLPRPRPRPACAPRP: the “shrunken log2 fold change” value is 0.441.

Turning to RRIRLRPPRLPRPRPRPWCVPRP, the “shrunken log2 fold change” value was -0.35.

Turning to RRIRLRPPRLPRPRPRPTAPPRP, the “shrunken log2 fold change” value was 0.645.

With RRIRNRPPRLPRPRPRPNWTPRP, the “shrunken log2 fold change” value was -0.0743.

In the case of RRIRYRPPRLPRPRPRPSLWPRP, the “shrunken log2 fold change” value is -0.0532.

Turning to RRIRCRPPRLPRPRPRPCADPRP, the “shrunken log2 fold change” value was -0.0836.

As to RRIRARPPRLPRPRPRPAYIPRP, the “shrunken log2 fold change” value was -0.148.

As for RRIRSRPPRLPRPRPRPSWTPRP, the “shrunken log2 fold change” value was -0.299.

On to RRIRPRPPRLPRPRPRPYLHPRP, for which the “shrunken log2 fold change” value was -0.471.

On to RRIRTRPPRLPRPRPRPDMFPRP, for which the “shrunken log2 fold change” value is -0.0274.

With RRIRIRPPRLPRPRPRPCVDPRP, the “shrunken log2 fold change” value is -0.0909.

As to RRIRDRPPRLPRPRPRPDDPPRP, the “shrunken log2 fold change” value was -0.00152.

In the case of RRIRGRPPRLPRPRPRPTWHPRP, the “shrunken log2 fold change” value was 0.468.

Regarding RRIRYRPPRLPRPRPRPWRWPRP, the “shrunken log2 fold change” value was -0.036.

Turning to RRIRPRPPRLPRPRPRPKQAPRP, the “shrunken log2 fold change” value is -0.0162.

Turning to RRIRMRPPRLPRPRPRPSQHPRP, the “shrunken log2 fold change” value was 0.136.

For RRIRNRPPRLPRPRPRPKQGPRP, the “shrunken log2 fold change” value was 0.0554.

Turning to RRIRARPPRLPRPRPRPRVHPRP, the “shrunken log2 fold change” value came to 0.555.

Regarding RRIRERPPRLPRPRPRPQAFPRP, the “shrunken log2 fold change” value was -0.017.

Consider RRIRVRPPRLPRPRPRPFLIPRP, for which the “shrunken log2 fold change” value was -0.777.

In the case of RRIRFRPPRLPRPRPRPDNFPRP, the “shrunken log2 fold change” value is -0.204.

Turning to RRIRARPPRLPRPRPRPISGPRP, the “shrunken log2 fold change” value was -0.00122.

RRIRCRPPRLPRPRPRPRFAPRP: the “shrunken log2 fold change” value was found to be 0.356.

As to RRIRGRPPRLPRPRPRPHGPPRP, the “shrunken log2 fold change” value amounted to 0.426.

Turning to RRIRVRPPRLPRPRPRPFFDPRP, the “shrunken log2 fold change” value was 1.19.

With RRIRARPPRLPRPRPRPGITPRP, the “shrunken log2 fold change” value is 0.335.

Turning to RRIRARPPRLPRPRPRPGREPRP, the “shrunken log2 fold change” value turned out to be 0.388.

Turning to RRIRFRPPRLPRPRPRPWCWPRP, the “shrunken log2 fold change” value turned out to be 0.155.

Turning to RRIRIRPPRLPRPRPRPHCVPRP, the “shrunken log2 fold change” value was -0.533.

As for RRIRLRPPRLPRPRPRPRMVPRP, the “shrunken log2 fold change” value was found to be 0.0504.

On to RRIRTRPPRLPRPRPRPIWQPRP, for which the “shrunken log2 fold change” value amounted to 0.168.

As to RRIRRRPPRLPRPRPRPTWPPRP, the “shrunken log2 fold change” value amounted to 0.647.

RRIRTRPPRLPRPRPRPGLFPRP: the “shrunken log2 fold change” value came to 0.458.

Regarding RRIRMRPPRLPRPRPRPRKWPRP, the “shrunken log2 fold change” value was 0.363.

RRIRKRPPRLPRPRPRPDPDPRP: the “shrunken log2 fold change” value was found to be 0.431.

As for RRIRNRPPRLPRPRPRPQSVPRP, the “shrunken log2 fold change” value is -0.0373.

With RRIRPRPPRLPRPRPRPNHMPRP, the “shrunken log2 fold change” value was -0.319.

Regarding RRIRLRPPRLPRPRPRPWYYPRP, the “shrunken log2 fold change” value is -0.266.

On to RRIRFRPPRLPRPRPRPGTHPRP, for which the “shrunken log2 fold change” value was 1.26.

On to RRIRIRPPRLPRPRPRPFWMPRP, for which the “shrunken log2 fold change” value is -0.192.

Take RRIRNRPPRLPRPRPRPAWTPRP: the “shrunken log2 fold change” value stood at 0.182.
